167 variants from the RNAGym collection of RNA variant scans (doi:10.7554/elife.80360) can be followed below.

The labels stand for the following.
B1: HDV Ribozyme (parent)
chain: GGCCGGCAUGGUCCCAGCCUCCUCGCUGGCGCCGGCUGGGCAACAUUCCGAGGGGACCGUCCCCUCGGUAAUGGCGAAUGGGACCCA

In the data set the parent is B1. Briefly: self-cleavage, relative activity (ratio to wild type); higher = more cleavage; co-transcriptional.
Take G28U G31C: the self-cleavage was 0.189.
The figure for G29C C44A is 0.0554.
The figure for G28C G59A is 0.185.
The figure for G28C G59U is 0.0678; for G28C A45C it is 0.0594.
As for G28C A45G, the self-cleavage amounted to 0.0811.
The figure for G28U G67C is 0.0545.
The figure for G28U G67A is 0.164; for G29A U60C it is 0.0997.
As for G29A U60G, the self-cleavage is 0.0923.
The figure for G28U U79C is 0.0707; for G28U U79G it is 0.0978.
With G28U U79A, the self-cleavage stood at 0.0978.
Take G28U G59A: the self-cleavage came to 0.0936.
The figure for G29C G81A is 0.0639; for G29A A56G it is 0.224.
The figure for G29A A56C is 0.198.
The figure for G29A G55U is 0.168; for G29A G55A it is 0.208; for G28U G34U it is 0.117.
Consider G28U G34C, for which the self-cleavage is 0.101.
Turning to G28U U69C, the self-cleavage is 0.0791.
The figure for G28U U69A is 0.162.
As to G29A G52A, the self-cleavage came out at 0.0554.
The figure for G29A C66U is 0.114.
Take G29A C62A: the self-cleavage stood at 0.391.
The figure for G28U A71U is 0.246; for G29C G35A it is 0.104.
The figure for G28C G74C is 0.151.
Regarding G28C G74U, the self-cleavage was found to be 0.0692.
The figure for G28C C86G is 0.0692; for G28C C86A it is 0.0583; for G28C G55A it is 0.18.
With G28C G55U, the self-cleavage worked out at 0.196.
The figure for G28C C85A is 0.0475; for G28C A87U it is 0.0455.
The figure for G28C A87G is 0.125.
The figure for G28C A87C is 0.0987; for G29A U37A it is 0.136; for G29C C86U it is 0.0739.
As to G29C C86A, the self-cleavage stood at 0.0519.
Regarding G29A G74U, the self-cleavage turned out to be 0.073.
The figure for G28U A77C is 0.0475.
The figure for G28U G53C is 0.0692; for G28U G53A it is 0.0801; for G28U G53U it is 0.124.
The figure for G28U U65G is 0.128; for G28U U65C it is 0.0707; for G28U C64A it is 0.125.
G29C G68C: the self-cleavage was found to be 0.0449.
Regarding G28U G38A, the self-cleavage stood at 0.0863.
The figure for G28U G38C is 0.0665.
The figure for G29A G53U is 0.114; for G28C G73U it is 0.154; for G28C G73C it is 0.148.
The figure for G28U A83U is 0.0415; for G29C C49G it is 0; for G28U G55A it is 0.0712.
Turning to G28U G55U, the self-cleavage came to 0.185.
G29C C33A: the self-cleavage was found to be 0.0959.
The figure for G28U A70U is 0; for G29A U46C it is 0.138; for G29A U46G it is 0.166.
The figure for G28C G81C is 0.0875.
The figure for G29C C62G is 0.155; for G28C A78C it is 0.0852; for G29A U65A it is 0.0627.
Turning to G29A U65C, the self-cleavage was determined as 0.17.
The figure for G28U G68C is 0.0733.
The figure for G29A A42C is 0.104; for G28C G35U it is 0.0997; for G28C G35C it is 0.0554.
The figure for G28C G35A is 0.0326; for G28U G39C it is 0.125.
With G28U G39A, the self-cleavage was 0.0256.
The figure for G29A A83G is 0.0611.
The figure for G29A A83U is 0.208; for G28U C48A it is 0.125.
The figure for G28U C48U is 0.0361.
Turning to G28U C57A, the self-cleavage turned out to be 0.102.
The figure for G28U C57U is 0.208; for G29A C48U it is 0.0656; for G29A C48A it is 0.262.
The figure for G29A C48G is 0.0875.
The figure for G29C C41G is 0.229; for G29C C41U it is 0.0297.
In the case of G29C C41A, the self-cleavage is 0.
The figure for G29A C84U is 0.133; for G29A C84A it is 0.245.
The figure for G28U G82U is 0.0468; for G28C G53C it is 0.
The figure for G28C G53U is 0.123; for G28C G53A it is 0.0941; for G28C C36G it is 0.0773.
For G28U G80C, the self-cleavage stood at 0.0639.
The figure for G28C A70G is 0; for G28C A70C it is 0.104; for G28C A70U it is 0.101.
On to G29A C49A, for which the self-cleavage is 0.136.
The figure for G29A C86U is 0.0314.
The figure for G29A C86G is 0.138.
The figure for G28C A42U is 0.166.
In the case of G29A C36G, the self-cleavage stood at 0.111.
The figure for G29A C36A is 0.0222; for G28C U37G it is 0.
On to G28C U37A, for which the self-cleavage turned out to be 0.229.
The figure for G28C G52C is 0.229; for G28C G52U it is 0.0831; for G28U C63U it is 0.12.
The figure for G29A G40A is 0.237; for G29C G80C it is 0.0308; for G28C C63U it is 0.0369.
The figure for G28U C30A is 0.0923.
With G28U C30G, the self-cleavage stood at 0.0886.
For G28U C30U, the self-cleavage was determined as 0.
The figure for G28C A71G is 0.222; for G29A G68A it is 0.107; for G29A G68C it is 0.111.
The figure for G29A G68U is 0.0841.
Turning to G29C G39C, the self-cleavage worked out at 0.277.
The figure for G29C G39A is 0.0583; for G28U C33A it is 0.124.
As for G28U C33U, the self-cleavage is 0.117.
As to G28U C44A, the self-cleavage was 0.
The figure for G28U C44G is 0.111; for G28U C44U it is 0.0297; for G29C U60C it is 0.0449.
G29A U72A: the self-cleavage amounted to 0.122.
Take G29C A51G: the self-cleavage came out at 0.
The figure for G28C C66G is 0.13; for G29C C75A it is 0.138.
The figure for G29A G82U is 0.0911.
The figure for G29A C63U is 0.226; for G29A C63G it is 0.128; for G28U U47G it is 0.095.
G28U U47A: the self-cleavage is 0.111.
As to G29A G81U, the self-cleavage was 0.125.
The figure for G28U U72A is 0; for G28U U60C it is 0.0755.
The figure for G28U U60A is 0.17; for G28U C85U it is 0.0639.
The figure for G28U C85G is 0.108; for G29A G38U it is 0.113.
Regarding G28U U37C, the self-cleavage was 0.141.
The figure for G28U U37G is 0.18.
The figure for G28C C49U is 0.111; for G28U A56G it is 0.
The figure for G28U A56U is 0.0941; for G29C A43U it is 0.0519; for G28U A42U it is 0.138.
Regarding G28U A42C, the self-cleavage came to 0.0415.
The figure for G29A C33A is 0.104; for G28C G68U it is 0.0426.
The figure for G28C G68C is 0.138; for G28C U46G it is 0.0755; for G28C U46C it is 0.0723.
The figure for G29C C61U is 0.119; for G29C C61G it is 0.032.
Regarding G28C G80A, the self-cleavage was 0.193.
The figure for G29A A77G is 0.095.
Consider G29C G34A, for which the self-cleavage came out at 0.
The figure for G29C G34U is 0.181; for G29C G34C it is 0.125.
The figure for G29C G52C is 0.208.
In the case of G29C A87G, the self-cleavage is 0.086.
Turning to G29C A87U, the self-cleavage was 0.0378.
The figure for G29C A87C is 0.0932.
